We go through three molecules from patent US8003357B2, “Acidophilic enzymes” (Helmholtz-Zentrum Fuer Infektionsforschung GmbH, priority 2005, dated 2011).

Data set [1] in a line: Fe2+ content (ICP-MS) and Fe2+ dependence of activity, dialysis against EDTA. In kind it is biochemical. To be noted: relative to wild type = 100; after dialysis against 1 mM EDTA; 100 mM sodium citrate, 10 mM FeCl2. The method, then:
The UV-VIS absorption spectra of purified acidic enzymes are shown in FIG. 4, wherein the uninterrupted lines refer to Fe^2+ containing enzymes and the interrupted lines refer to enzymes after dialysis against EDTA containing buffer. The λ-max values found at ca. 572 nm correlate with the Fe^2+ content, i.e. disappear after incubation with EDTA or DTT for 24 h. ICP-MS analysis confirmed the presence of 0.82±0.10 mol Fe in EstFA, 0.34±0.08 mol Fe in αGluFA, […] and 0.63±0.09 mol Fe in LigFA.
In FIG. 5, relative activities of acidic enzymes with varying content of Fe^2+ are shown. For analysis, purified enzymes were incubated in 1 mM EDTA. At time intervals indicated, two aliquots were removed, one was used for hydrolysis of respective substrates, the other for ICP-MS analysis of Fe. For relative activities, activities before incubation with EDTA were used as 100% values.
When further investigating the dependence of the acidic enzymes according to the invention on Fe^2+, relative activity for EstFA, αGluFA and LigFA were investigated for their natural Fe^2+ content, e.g. wild-type, which was set to 100%, in comparison to the activity after dialysis against a 1 mM EDTA containing buffer.

Data set [2] is described as follows: Transglucosylation of maltose catalyzed by αGluFA. In kind it is biochemical. From the text: αGluFA is also suitable for the transfer of glucosyl groups from maltose to selectively produce a maltotriose. […] The reaction was followed by HPLC measurements.
The nature of data set [3]: pH and temperature dependence, stability and activity of recombinant acidic enzymes. It counts as biochemical. To be noted: for enzymatic stability at elevated temperatures: FIG. 2, LigFA pH 3.0, EstFA and αGluFA pH 2.0 at 40 and 50° C., GlyFA1 and GlyFA2 pH 4.0 at 40° C.; for Optimum temperature: measured at optimum pH. Here is the method:
The acidic enzymes according to the invention were expressed in E. coli using the genomiccoding sequence for the respective enzyme from Ferroplasma acidiphilum, which are described in detail below. For enzymatic conversions, reaction conditions were in 100 mM sodium acetate buffer, 100 mM citrate buffer, 100 mM HEPES buffer for 2 minutes at 30° C., using p-nitrophenol propionate as the substrate for esterase, starch in the case of glycosidases, and HindIII digested λ DNA for ligase.
The activity was assayed using p-nitrophenol propionate as a substrate for esterase, starch for αGluFA and GlyFA1, GlyFA2, and HindIII digested λ DNA for LigFA.
The acidic enzymes according to the invention in vitro show similar elevated reaction temperatures. Substrates were as described for FIG. 2 above.
An overview of catalytic and molecular properties of acidic enzymes that were heterologously expressed in E. coli is given in the following Table III: […]

Substrate in data set [4]: CCCC(=O)OCC(COC(=O)CCC)OC(=O)CCC
In words: EstFA hydrolysis of p-nitrophenol esters and triglycerides. It counts as biochemical, Ferroplasma acidiphilum. To be noted: other: EstFA expressed in E. coli. The method, then:
(§1) Hydrolysis of p-nitrophenol propionate was observed spectrophotometrically at 405 nm, optionally in and 96-well plates. The substrate specificity of acidic esterase EstFA obtainable from Ferroplasma acidiphilum was characterized using the heterologously expressed EstFA of Example 6 (expressed in E. coli), using p-nitrophenol esters and triglycerides as summarised in following Table IV:
(§2) The above substrate specificities were tested in 96-well plates, using 100 mM citrate buffer (pH 2.0) in the presence of 5 μg pure EstFA. For the substrate, the concentrations between 10 nM and 10 mM were chosen. Progress of the reaction was followed by spectrophotometry using p-nitrophenol propionate as an indicator. The reaction was stopped after 10 hours by adjusting the pH to 8.0 by adding sodium hydroxide from a 100 mM stock solution and phenol red (0.8 mM) as a pH indicator. Activities and selectivities were examined according to Mam Fai Lui et al. (2001). Ester hydrolysis of enantiomerically pure esters was measured colorimetrically in 5.0 mM EPPS buffer (N-(2-hydroxyethyl) piperazine-N′-(3′-propanesulfonic acid) at pH 8.0 and phenol red after termination of the reaction.

Substrate in data set [5]: CC(=O)Oc1ccc([N+](=O)[O-])cc1
Described as above. It counts as biochemical, Ferroplasma acidiphilum. The note with it: other: EstFA expressed in E. coli. The method, then: as §1, §2

Substrate in data set [6]: CCC(=O)Oc1ccc([N+](=O)[O-])cc1
The description is as above. It counts as biochemical, Ferroplasma acidiphilum. The note with it: other: EstFA expressed in E. coli. Here is the method: as §1, §2

Substrate in data set [7]: CCCC(=O)Oc1ccc([N+](=O)[O-])cc1
The description is as above. In kind it is biochemical, Ferroplasma acidiphilum. To be noted: other: EstFA expressed in E. coli. Here is the method:
as §1, §2

Substrate in data set [8]: CCCCCCCC(=O)Oc1ccc([N+](=O)[O-])cc1
The data set is described as above. It counts as biochemical, Ferroplasma acidiphilum. To be noted: other: EstFA expressed in E. coli. Here is the method: as §1, §2

Substrate in data set [9]: CCCCCCCCCC(=O)Oc1ccc([N+](=O)[O-])cc1
The data set is described as above. In kind it is biochemical, Ferroplasma acidiphilum. To be noted: other: EstFA expressed in E. coli. The method, then: as §1, §2

Substrate in data set [10]: CCCCCCCCCCCC(=O)Oc1ccc([N+](=O)[O-])cc1
The description is as above. In kind it is biochemical, Ferroplasma acidiphilum. The note with it: other: EstFA expressed in E. coli. Here is the method:
as §1, §2

Setting [11] is: measured at optimum temperature.

B1: αGluFA: acidic glucosidase from Ferroplasma acidiphilum, 531 amino acids, Seq ID No. 11 (protein, listed as Ferroplasma acidiphilum)
chain: INSLYILNHKVIIAVAVSAILIAMVFAGANIPYPGYNPTDHLISGKHPISNVSEVPKNFTLSGNVSNSNNNLPLSGTITVSNSTMSRTFNTSSNGSYNITLPQGNYSISSSIPGFQNYSSTINLDSNKTQNISTPPATTIGNGINQVPGSTNVSTLVPYLNNSIMSGGLNTDNITGTFDKNITIDLGKKLNNTQFVVLMKLDGAVYSYNWVTNGSGMAKLFLKYSGNYTMSAYTLYYNSSVIHYNTANNDTARFNMTERITFISSVILQSAVPLHDNSSVANSTLTVKGGVFSVPSLSVNSNLTGTYYKYEVPVGFYNFAYSNAHYVSKNFGVDVTGNSTVNKTIDPYLISINIRNNTGNTFNYTLGSTFYSGNGIHMATSGITTLLVFHDGKIVYDNTILLTSANPYYQLNLTISNKNLTFNGIETDSTNLSIVYSGNVTSNFYIASLEFENFSTSATNGMIIISGAASGSYPLDSGLYTYNMSQSLPTSAGNLTIKLVYDNDSKVSTDGRMTVEVYGYNISTLGNYITE
modifications: CDS (1)..(1596) alpha glu FA, in Figure 11 designated sequence 5a
B1: in data set [1], the “activity, +EDTA” value is given as 5.40%. The “percentage of transglucosylated maltose” value in data set [2] (over the course of the reaction) is “more than 70%”. The “product selectivity of synthesis” value in data set [2] (pH 3.0, up to 300 g/L maltotriose) was “selectively synthesizes maltotriose”. Moreover, the maltose in data set [2] (reaction time 5) was determined as 456 g/L; in [2] (reaction time 10), 402 g/L; in data set [2] (reaction time 20), 302 g/L; in data set [2] (reaction time 30), 199 g/L; in data set [2] (reaction time 60) it was 159 g/L; in data set [2] (reaction time 180), 111 g/L. Besides, the maltotriose in data set [2] (reaction time 5) was determined as 88 g/L; in data set [2] (reaction time 10) it was 122 g/L; in [2] (reaction time 20), 186 g/L; in data set [2] (reaction time 30), 248 g/L; in data set [2] (reaction time 60), 276 g/L; in [2] (reaction time 180) it was 304 g/L. Moreover, the “percentage of maltose transglycosylated” value in data set [2] (reaction time 5) amounted to 70.3%; in data set [2] (reaction time 10), 72.7%; in [2] (reaction time 20), 74.5%; in data set [2] (reaction time 30), 73.3%; in [2] (reaction time 60), 74.7%; in [2] (reaction time 180), 74.0%. The glucose worked out at 59 g/L in [2] (reaction time 5, 600 g/L maltose, pH 3.0, 50° C.); 76 g/L in data set [2] (reaction time 10); 112 g/L in [2] (reaction time 20); 153 g/L in data set [2] (reaction time 30); 165 g/L in data set [2] (reaction time 60); 185 g/L in data set [2] (reaction time 180). The “enzymatic stability at elevated temperatures” value in [3] is on record as “good stability”. Moreover, the enzymatic activity retained entry in data set [3] (at 65° C.) is reported as “approximately 50%”. In addition, the “temperature up to which the enzyme was stable” value in data set [3] (for 60 minutes) is “up to 60 °C”. The “Optimum pH” value in data set [3] (in the presence of Fe2+) was 2.0; in data set [3] (setting [11]) it was 2.5-3.0. Also, the Optimum temperature in data set [3] amounted to 60 °C. For the same molecule, the original activity retained entry in data set [3] (pH 1.5 to 3.9, incubation at 20° C. over 24 hours) was “more than 80%”.

B2: EstFA: acidophilic, Fe2+ dependent esterase from Ferroplasma acidiphilum, 308 amino acids, Seq ID No. 6 (protein, listed as Ferroplasma acidiphilum)
chain: INSLYILNHKVIIAVAVSAILIAMVFAGANIPYPGYNPTDHLISGKHPISNVSEVPKNFTLSGNVSNSNNNLPLSGTITVSNSTMSRTFNTSSNGSYNITLPQGNYSISSSIPGFQNYSSTINLDSNKTQNISTPPATTIGNGINQVPGSTNVSTLVPYLNNSIMSGGLNTDNITGTFDKNITIDLGKKLNNTQFVVLMKLDGAVYSYNWVTNGSGMAKLFLKYSGNYTMSAYTLYYNSSVIHYNTANNDTARFNMTERITFISSVILQSAVPLHDNSSVANSTLTVKGGVFSVPSLSVNSNLTGTYYKYEVPVGFYNFAYSNAHYVSKNFGVDVTGNSTVNKTIDPYLISINIRNNTGNTFNYTLGSTFYSGNGIHMATSGITTLLVFHDGKIVYDNTILLTSANPYYQLNLTISNKNLTFNGIETDSTNLSIVYSGNVTSNFYIASLEFENFSTSATNGMIIISGAASGSYPLDSGLYTYNMSQSLPTSAGNLTIKLVYDNDSKVSTDGRMTVEVYGYNISTLGNYITE
modifications: PEPTIDE (1)..(531) alpha Glu FA
On to B2, for which the “activity, +EDTA” value in [1] was 0.30%. For the same molecule, the “stability of purified enzyme” value in [3] (20 mM citrate buffer, pH 1.5, room temperature) was “stable”. For the same molecule, in data set [3], the “enzymatic stability at elevated temperatures” value is given as “good stability” and the Optimum temperature worked out at 50 °C. Also, the “Optimum pH” value in [3] (setting [11]) was 2.0-3.5. In addition, the “stability at pH values above 5.0” value in [3] (pH above 5.0) is “rapidly inactivated”.

B3: EstFA (Ferroplasma acidiphilum) (protein)
chain: MHLMNMVDPDFNSLIELSKSAGDMTKIEPAMLRNFLDESSLSSRGAPVEIKEIKDYKIKLDGRTLNARMYDDNNAKSAILYYHGGGFLFGNIETYDNYCRFLAKESGVKIISIEYRLAPEHKFPDAFNDAYDSFHYIAKKKKDFGIEGRIGVAGDSAGANLAAALCLKCRDGKTEMPAVQVLFYPSLAPDNFSRSFIEYSDNYVLTGKMIRYFGNMYSKNMQDLINPYFSPLVADDFSNLPPAIMVTNEYDPLRDPEETYVKKLREAGVRAVGIRGIGMIHGSATDFEVSDGARNIVKMVARIIPDYL
On to B3, for which the Km (in general, the substrate concentration at which the rate is half of its maximum) in data set [4] came to 1.75 ± 0.14 mg/mL; in data set [5], 0.39 ± 0.08 mg/mL; in [6] it was 0.20 ± 0.04 mg/mL; in data set [7], 1.75 ± 0.12 mg/mL; in [8], 1.68 ± 0.12 mg/mL; in data set [9], 4.30 ± 0.42 mg/mL. The Km in data set [10] stood at 4.41 ± 0.38 mg/mL. Further, the kcat (as a rule, the maximal rate divided by the concentration of active sites) in [4] worked out at 1890 ± 27 s⁻¹; in data set [5] it was 860 ± 21 s⁻¹; in data set [6], 1190 ± 25 s⁻¹; in data set [7] it was 2300 ± 30 s⁻¹; in data set [8] it was 239 ± 12 s⁻¹; in [9], 179 ± 4 s⁻¹. Besides, the catalytic constant (kcat) in [10] turned out to be 120 ± 4 s⁻¹.
